From article PMC4233993, “Comparison of three tannases cloned from closely related lactobacillus species: L. Plantarum, L. Paraplantarum, and L. Pentosus” (BMC Microbiology, 2014) come the findings set out here.

A word on the Km: it is the concentration of substrate that gives half-maximal velocity. Usually kcat stands for the number of substrate molecules converted per active site and unit of time at saturation. Usually kcat/Km stands for the turnover number divided by the Michaelis constant.

Holding throughout (assay): HPLC of reaction products, Hanes-Woolf plot
Common to all, as to conditions: 50 mM Tris-HCl pH 8.0, 37°C, 33 nM enzyme

In data set [1] the test system is T1, O=C(O[C@@H]1Cc2c(O)cc(O)cc2O[C@@H]1c1ccc(O)c(O)c1)c1cc(O)c(O)c(O)c1.
T1 construct: full ORF (1410 bp, 469 residues, 50,708 Da), C-terminal His tag, fused to YbdK signal peptide in pBE-S, expressed in Bacillus subtilis RIK 1285, purified from cells
The format is biochemical, Lactiplantibacillus paraplantarum. The source says: (§1) HPLC of reaction products, Hanes-Woolf plot on TanLpa

Data set [2] deals with T2, O=C(O[C@@H]1Cc2c(O)cc(O)cc2O[C@@H]1c1cc(O)c(O)c(O)c1)c1cc(O)c(O)c(O)c1.
T2 construct: full ORF (1410 bp, 469 residues, 50,708 Da), C-terminal His tag, fused to YbdK signal peptide in pBE-S, expressed in Bacillus subtilis RIK 1285, purified from cells
The format is biochemical, Lactiplantibacillus paraplantarum.
Excerpt: as §1

Data set [3] relates to T3, O=C(O[C@@H]1Cc2c(O)cc(O)cc2O[C@H]1c1ccc(O)c(O)c1)c1cc(O)c(O)c(O)c1.
T3 construct: full ORF (1410 bp, 469 residues, 50,708 Da), C-terminal His tag, fused to YbdK signal peptide in pBE-S, expressed in Bacillus subtilis RIK 1285, purified from cells
The data set is classed as biochemical, Lactiplantibacillus paraplantarum.
Excerpt: as §1

Data set [4] relates to T4, COc1cc(C(=O)O[C@@H]2Cc3c(O)cc(O)cc3O[C@@H]2c2cc(O)c(O)c(O)c2)cc(O)c1O.
T4 construct: full ORF (1410 bp, 469 residues, 50,708 Da), C-terminal His tag, fused to YbdK signal peptide in pBE-S, expressed in Bacillus subtilis RIK 1285, purified from cells
The data set is classed as biochemical, Lactiplantibacillus paraplantarum.
Excerpt: as §1

In data set [5] the test system is T5, COC(=O)c1cc(O)c(O)c(O)c1.
T5 construct: full ORF (1410 bp, 469 residues, 50,708 Da), C-terminal His tag, fused to YbdK signal peptide in pBE-S, expressed in Bacillus subtilis RIK 1285, purified from cells
The data set is classed as biochemical, Lactiplantibacillus paraplantarum.
Excerpt: as §1

In data set [6] the test system is T6, O=C(O[C@@H]1Cc2c(O)cc(O)cc2O[C@H]1c1cc(O)c(O)c(O)c1)c1cc(O)c(O)c(O)c1.
T6 construct: full ORF (1410 bp, 469 residues, 50,708 Da), C-terminal His tag, fused to YbdK signal peptide in pBE-S, expressed in Bacillus subtilis RIK 1285, purified from cells
The data set is classed as biochemical, Lactiplantibacillus paraplantarum.
Excerpt: as §1

Data set [7] has as its system T7, O=C(O[C@@H]1Cc2c(O)cc(O)cc2O[C@@H]1c1cc(O)c(O)c(O)c1)c1cc(O)c(O)c(O)c1.
T7 construct: full ORF (1413 bp, 470 residues, 51,193 Da), C-terminal His tag, fused to YbdK signal peptide in pBE-S, expressed in Bacillus subtilis RIK 1285, purified from cells
The data set is classed as biochemical, Lactiplantibacillus pentosus. The source says: (§2) HPLC of reaction products, Hanes-Woolf plot on TanLpe

Data set [8] has as its system T8, COc1cc(C(=O)O[C@@H]2Cc3c(O)cc(O)cc3O[C@@H]2c2cc(O)c(O)c(O)c2)cc(O)c1O.
T8 construct: full ORF (1413 bp, 470 residues, 51,193 Da), C-terminal His tag, fused to YbdK signal peptide in pBE-S, expressed in Bacillus subtilis RIK 1285, purified from cells
The data set is classed as biochemical, Lactiplantibacillus pentosus.
Excerpt: as §2

Data set [9] concerns T9, O=C(O[C@@H]1Cc2c(O)cc(O)cc2O[C@H]1c1cc(O)c(O)c(O)c1)c1cc(O)c(O)c(O)c1.
T9 construct: full ORF (1413 bp, 470 residues, 51,193 Da), C-terminal His tag, fused to YbdK signal peptide in pBE-S, expressed in Bacillus subtilis RIK 1285, purified from cells
The data set is classed as biochemical, Lactiplantibacillus pentosus.
Excerpt: as §2

In data set [10] the test system is T10, O=C(O[C@@H]1Cc2c(O)cc(O)cc2O[C@@H]1c1ccc(O)c(O)c1)c1cc(O)c(O)c(O)c1.
T10 construct: full ORF (1413 bp, 470 residues, 51,193 Da), C-terminal His tag, fused to YbdK signal peptide in pBE-S, expressed in Bacillus subtilis RIK 1285, purified from cells
The format is biochemical, Lactiplantibacillus pentosus.
Excerpt: as §2

In data set [11] the test system is T11, COC(=O)c1cc(O)c(O)c(O)c1.
T11 construct: full ORF (1413 bp, 470 residues, 51,193 Da), C-terminal His tag, fused to YbdK signal peptide in pBE-S, expressed in Bacillus subtilis RIK 1285, purified from cells
The format is biochemical, Lactiplantibacillus pentosus.
Excerpt: as §2

Data set [12] deals with T12, O=C(O[C@@H]1Cc2c(O)cc(O)cc2O[C@H]1c1ccc(O)c(O)c1)c1cc(O)c(O)c(O)c1.
T12 construct: full ORF (1413 bp, 470 residues, 51,193 Da), C-terminal His tag, fused to YbdK signal peptide in pBE-S, expressed in Bacillus subtilis RIK 1285, purified from cells
The data set is classed as biochemical, Lactiplantibacillus pentosus.
Excerpt: as §2

Substrate in data set [13]: COC(=O)c1cc(O)c(O)c(O)c1
The format is biochemical, Lactiplantibacillus plantarum. An excerpt:
(§3) HPLC of reaction products, Hanes-Woolf plot on TanLpl

Substrate in data set [14]: O=C(O[C@@H]1Cc2c(O)cc(O)cc2O[C@@H]1c1cc(O)c(O)c(O)c1)c1cc(O)c(O)c(O)c1
The format is biochemical, Lactiplantibacillus plantarum.
Excerpt: as §3

Substrate in data set [15]: O=C(O[C@@H]1Cc2c(O)cc(O)cc2O[C@H]1c1cc(O)c(O)c(O)c1)c1cc(O)c(O)c(O)c1
The data set is classed as biochemical, Lactiplantibacillus plantarum.
Excerpt: as §3

Substrate in data set [16]: O=C(O[C@@H]1Cc2c(O)cc(O)cc2O[C@@H]1c1ccc(O)c(O)c1)c1cc(O)c(O)c(O)c1
The format is biochemical, Lactiplantibacillus plantarum.
Excerpt: as §3

Substrate in data set [17]: O=C(O[C@@H]1Cc2c(O)cc(O)cc2O[C@H]1c1ccc(O)c(O)c1)c1cc(O)c(O)c(O)c1
The data set is classed as biochemical, Lactiplantibacillus plantarum.
Excerpt: as §3

Substrate in data set [18]: COc1cc(C(=O)O[C@@H]2Cc3c(O)cc(O)cc3O[C@@H]2c2cc(O)c(O)c(O)c2)cc(O)c1O
The data set is classed as biochemical, Lactiplantibacillus plantarum.
Excerpt: as §3

Regarding “TanLpa (Lactiplantibacillus paraplantarum)”, the Km was determined as 60 ± 10 µM in data set [1]; 60 ± 10 µM in data set [2]; 50 ± 5 µM in data set [3]; 40 ± 4 µM in data set [4]; 500 ± 60 µM in the data set on COC(=O)c1cc(O)c(O)c(O)c1 [5]; 60 ± 2 µM in [6]. In addition, the kcat is 11.08 ± 0.44 s⁻¹ in data set [1]; 14.29 ± 0.82 s⁻¹ in data set [2]; 8.1 ± 0.04 s⁻¹ in data set [3]; 0.35 ± 0.07 s⁻¹ in data set [4]; 72.73 ± 3.34 s⁻¹ in the data set with COC(=O)c1cc(O)c(O)c(O)c1 [5]; 9.2 ± 0.09 s⁻¹ in data set [6]. In addition, the specificity constant (kcat/Km) in [1] is 195000 ± 21500 M⁻¹ s⁻¹; in data set [2] it was 261000 ± 46500 M⁻¹ s⁻¹; in data set [3], 182000 ± 27700 M⁻¹ s⁻¹; in data set [4], 9020 ± 2280 M⁻¹ s⁻¹; in the data set on COC(=O)c1cc(O)c(O)c(O)c1 [5], 145000 ± 10600 M⁻¹ s⁻¹; in data set [6], 155000 ± 7970 M⁻¹ s⁻¹.

On to TanLpe (Lactiplantibacillus pentosus), for which the Km in data set [7] is 60 ± 20 µM; in data set [8], 5 ± 0.9 µM; in [9], 70 ± 2 µM; in data set [10], 50 ± 10 µM; in the data set with COC(=O)c1cc(O)c(O)c(O)c1 [11], 870 ± 410 µM; in data set [12], 80 ± 4 µM. The turnover number (kcat) in [7] came to 0.44 ± 0.02 s⁻¹; in data set [8] it was 0.06 ± 0.02 s⁻¹; in data set [9] it was 1.12 ± 0.13 s⁻¹; in data set [10], 0.42 ± 0.03 s⁻¹; in the data set with COC(=O)c1cc(O)c(O)c(O)c1 [11] it was 15.95 ± 3.13 s⁻¹; in data set [12], 1.48 ± 0.11 s⁻¹. The kcat/Km in data set [7] stood at 7250 ± 2510 M⁻¹ s⁻¹; in [8] it was 10600 ± 1330 M⁻¹ s⁻¹; in data set [9], 14300 ± 1950 M⁻¹ s⁻¹; in data set [10] it was 8630 ± 1170 M⁻¹ s⁻¹; in the data set with COC(=O)c1cc(O)c(O)c(O)c1 [11], 18800 ± 3080 M⁻¹ s⁻¹; in data set [12], 19200 ± 2360 M⁻¹ s⁻¹.

B1: TanLpl (Lactiplantibacillus plantarum) (protein)
chain: MSNRLIFDADWLVPEQVQVAGQAIQYYAARNIQYVQHPVAAIQVLNVFVPAAYLHGSSVNGYQRATAPILMPNTVGGYLPGPADDPQRVTWPTNAGTIQQALKRGYVVVAAGIRGRTTVDKSGQRVGQAPAFIVDMKAAIRYVKYNQGRLPGDANRIITNGTSAGGATSALAGASGNSAYFEPALTALGAAPATDDIFAVSAYCPIHNLEHADMAYEWQFNGINDWHRYQPVAGTTKNGRPKFEPVSGQLTVEEQALSLALKAQFSTYLNQLKLTASDGTHLTLNEAGMGSFRDVVRQLLISSAQTAFDQGTDIHKYAGFVVTGNQVTDLDLSAYLKSLTRMKAVPAFDQLDLTSPENNLFGDATAKAKHFTALAQTRSTVTAQLADAELIQAINPLSYLTTTSSQVAKHWRIRHGAADRDTSFAIPIILAIMLENHGYGIDFALPWDIPHSGDYDLGDLFSWIDGLCQ
notes: full ORF (469 residues, ~50 kDa), C-terminal His tag, fused to YbdK signal peptide in pBE-S, expressed in Bacillus subtilis RIK 1285, purified from cells
For B1, the Km in data set [13] is 370 ± 40 µM; in data set [14] it was 100 ± 10 µM; in data set [15], 30 ± 8 µM; in [16] it was 30 ± 20 µM; in data set [17], 50 ± 2 µM; in [18], 40 ± 9 µM. For the same molecule, the kcat in data set [13] is 46.02 ± 0.87 s⁻¹; in [14] it was 1.12 ± 0.03 s⁻¹; in [15], 0.89 ± 0.044 s⁻¹; in data set [16], 1.49 ± 0.19 s⁻¹; in data set [17] it was 2.41 ± 0.10 s⁻¹; in data set [18] it was 0.26 ± 0.04 s⁻¹. Further, the kcat/Km came out at 125000 ± 15400 M⁻¹ s⁻¹ in data set [13]; 11700 ± 1290 M⁻¹ s⁻¹ in data set [14]; 27200 ± 6280 M⁻¹ s⁻¹ in data set [15]; 52200 ± 25600 M⁻¹ s⁻¹ in data set [16]; 53600 ± 4620 M⁻¹ s⁻¹ in data set [17]; 6040 ± 570 M⁻¹ s⁻¹ in data set [18].
